Measured values as given in article PMC10227085, “OsMADS17 simultaneously increases grain number and grain weight in rice”.

Key:
[1] = target: MBP-OsMADS1 (Oryza sativa, UniProt Q10PZ9 1-257); assay: EMSA; cold probe competition at 20x and 200x; 20 uL with 2 uL biotin probe, 5 ug protein, 2 uL 10x binding buffer (composition not given), 1 uL 50% glycerol; 30 min at room temperature; 6% native PAGE, 0.5x TBE; conditions: protein: recombinant; tags: N-terminal MBP; chain copies: 2; blunt
[2] = target: MBP-OsMADS17 (Oryza sativa, UniProt Q7XUN2 1-249); assay: as above; conditions: protein: recombinant; tags: N-terminal MBP; chain copies: 2; blunt
Sequence of MBP-OsMADS17 (Q7XUN2 whole entry): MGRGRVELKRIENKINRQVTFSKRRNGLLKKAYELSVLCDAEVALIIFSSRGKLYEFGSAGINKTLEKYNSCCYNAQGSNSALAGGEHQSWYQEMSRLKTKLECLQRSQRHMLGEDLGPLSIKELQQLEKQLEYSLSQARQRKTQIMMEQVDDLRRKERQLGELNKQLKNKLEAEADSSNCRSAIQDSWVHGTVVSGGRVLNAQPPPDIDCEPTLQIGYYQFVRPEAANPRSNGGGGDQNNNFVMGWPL

Sequence of MBP-OsMADS1 (Q10PZ9 whole entry): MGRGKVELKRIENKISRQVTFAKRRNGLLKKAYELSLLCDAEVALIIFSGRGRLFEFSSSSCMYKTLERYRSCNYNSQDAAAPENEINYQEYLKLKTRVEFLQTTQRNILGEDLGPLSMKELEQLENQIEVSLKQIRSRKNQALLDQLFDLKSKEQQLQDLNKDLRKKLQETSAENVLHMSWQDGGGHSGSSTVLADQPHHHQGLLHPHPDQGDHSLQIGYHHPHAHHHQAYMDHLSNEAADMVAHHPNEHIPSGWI

Binder | binding result [1] | binding result [2]
EMSA-probe-OsMADS17 (dsDNA) DNA 1: TCTCTGCTCCTTTATATGGGGTTACA DNA 2: TGTAACCCCATATAAAGGAGCAGAGA | binds | 
EMSA-probe-OsAP2-39 (dsDNA) DNA 1: AAACCTTACCAAATTTTGGTAAAGTTGCCAAAAAAATGGCTATATTTA DNA 2: TAAATATAGCCATTTTTTTGGCAACTTTACCAAAATTTGGTAAGGTTT |  | binds
